± gives the standard deviation of the averaged measurements.
B1: library; a variant is named by its letters at N, in order (parent)
chain: GCUGUCACCGGUGCUUGGUACGUUAUAUUCAGCCGGUCUGAUGAGUCUNNNNNNAGACGAAACAGC

Tests used:
(6R,S)-folinic acid [1] = variants of: B1; assay: FACS-Seq fitted mean relative fluorescence mCherry/BFP without ligand (log10 relative fluorescence); HEK293T overexpressing SLC46A1; higher = higher reporter protein expression; details: without (6R,S)-folinic acid; ligand present: no
How it was run: (§1)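 HEK293T libraries were lentivirally transduced with an mCherry reporter carrying the ribozyme switch and an EF1α-BFP marker, enriched, and incubated for 48 h with or without ligand before sorting into 6 bins by mCherry/BFP. Genomic DNA from each bin was PCR-amplified, barcoded and sequenced on MiSeq. Fluorescence is the fitted normal mean of the bin counts. The fit used log10(mCherry/BFP), and means were scaled to five spiked-in control ribozymes.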

(6R,S)-folinic acid [2] = variants of: B1; assay: normalized RNA/DNA level without ligand (relative to sTRSVctl = 100) (log10 (% of sTRSVctl)); HEK293T overexpressing SLC46A1; higher = less ribozyme self-cleavage, higher mRNA level; details: without (6R,S)-folinic acid; ligand present: no
Protocol: (§2)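 Hammerhead (sTRSV) ribozyme switch libraries with a ligand aptamer grafted on stem I and a randomized N4-6 loop II, cloned into the 3' UTR of mCherry and transiently transfected into HEK293T cells; RNA-Seq 72 h post transfection with ligand added 1 h before transfection; RNA read count / plasmid DNA read count normalized to the non-cleaving sTRSVctl (x100), log10; sequences with >100 DNA reads. FACS-Seq: lentiviral library sorted into 6 bins after 48 h ligand, log-normal fit mean of mCherry/BFP scaled to controls. Printed sequences are partial switch sequences.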

(6R,S)-folinic acid [3] = variants of: B1; assay: FACS-Seq fitted mean relative fluorescence mCherry/BFP with ligand (log10 relative fluorescence); HEK293T overexpressing SLC46A1; ligand concentration (+) FACS-Seq: 6 mM; higher = higher reporter protein expression; details: with (6R,S)-folinic acid; ligand present: yes
How it was run: as §1

(6R,S)-folinic acid [4] = variants of: B1; assay: normalized RNA/DNA level with ligand (relative to sTRSVctl = 100) (log10 (% of sTRSVctl)); HEK293T overexpressing SLC46A1; ligand concentration (+) RNA-Seq: 6 mM; higher = less ribozyme self-cleavage, higher mRNA level; details: with (6R,S)-folinic acid; ligand present: yes
Protocol: as §2

Variant	FACS-Seq fitted mean (log10) ((6R,S)-folinic acid [1])	normalized RNA/DNA level without ligand (log10) ((6R,S)-folinic acid [2])	FACS-Seq fitted mean (log10) ((6R,S)-folinic acid [3])	normalized RNA/DNA level with ligand (log10) ((6R,S)-folinic acid [4])
CAAUUA	0.413 ± 0.065	1.963 ± 0.016	0.429 ± 0.07	1.989 ± 0.015
AAAGUC	0.0964 ± 0.057	2.066 ± 0.014	0.235 ± 0.08	2.03 ± 0.047
AAAGUG	-0.0552 ± 0.019	1.675 ± 0.0049	0.25 ± 0.14	1.95 ± 0.031
GAAUCG	0.149 ± 0.053	1.966 ± 0.0024	0.372 ± 0.14	2 ± 0.022
GAAUCA	0.429 ± 0.13	2.017 ± 0.005	0.409 ± 0.051	2.01 ± 0.03
UAAUAU	0.201 ± 0.005	1.922 ± 0.0069	0.297 ± 0.077	1.99 ± 0.026
UAAUAG	0.255 ± 0.04	1.75 ± 0.028	0.58 ± 0.11	1.96 ± 0.057
CACACA	0.66 ± 0.12	1.97 ± 0.026	0.319 ± 0.036	1.98 ± 0.031
CACACU	0.136 ± 0.099	2.008 ± 0.011	0.187 ± 0.057	2.03 ± 0.011
AAAGCA	0.3689 ± 0.0015	1.975 ± 0.0052	0.575 ± 0.35	1.98 ± 0.044
AAAGCG	0.0389 ± 0.01	1.743 ± 0.0089	0.352 ± 0.079	1.989 ± 0.013
UACCUG	0.402 ± 0.083	1.86 ± 0.039	0.39 ± 0.14	1.99 ± 0.052
UACCUC	0.402 ± 0.35	2.052 ± 0.0094	0.585 ± 0.43	2.04 ± 0.049
GACGCC	0.287 ± 0.023	2.043 ± 0.0061	0.0736 ± 0.3	2.03 ± 0.028
AACAUC	-0.902 ± 0.27	2.061 ± 0.019	-0.887 ± 0.24	2.06 ± 0.065
AACAUG	0.494 ± 0.1	1.96 ± 0.0024	0.6524 ± 0.0008	2.02 ± 0.022
AACAUA	0.204 ± 0.049	1.975 ± 0.0044	0.324 ± 0.15	1.99 ± 0.033
UACAUA	0.329 ± 0.1	1.959 ± 0.012	0.058 ± 0.017	2.002 ± 0.0044
UACAUG	0.195 ± 0.2	1.76 ± 0.0019	0.236 ± 0.015	1.97 ± 0.019
UACAAG	0.55 ± 0.1	1.74 ± 0.032	0.813 ± 0.031	1.94 ± 0.032
UACAAA	0.165 ± 0.11	1.9485 ± 0.00073	0.179 ± 0.031	1.99 ± 0.019
UACAAU	0.467 ± 0.071	1.95 ± 0.02	0.559 ± 0.071	2 ± 0.026
AAAGAA	0.282 ± 0.14	1.923 ± 0.011	0.569 ± 0.098	1.99 ± 0.037
AAAGAG	0.224 ± 0.031	1.617 ± 0.0032	0.316 ± 0.22	1.93 ± 0.049

Variant	FACS-Seq fitted mean (log10) ((6R,S)-folinic acid [1])	normalized RNA/DNA level without ligand (log10) ((6R,S)-folinic acid [2])	FACS-Seq fitted mean (log10) ((6R,S)-folinic acid [3])	normalized RNA/DNA level with ligand (log10) ((6R,S)-folinic acid [4])
AAAGAU	0.433 ± 0.025	1.9288 ± 0.0013	0.44 ± 0.027	2 ± 0.032
AAAGAC	0.42 ± 0.029	1.98 ± 0.0069	0.38 ± 0.23	2.01 ± 0.028
CACAUA	0.25 ± 0.021	1.978 ± 0.0043	0.219 ± 0.3	2.02 ± 0.035
GAAUGG	0.297 ± 0.079	1.89 ± 0.013	0.386 ± 0.37	2.03 ± 0.019
GAAUGA	0.25 ± 0.057	1.992 ± 0.0057	0.299 ± 0.2	2.02 ± 0.022
CAAUGA	0.153 ± 0.14	1.998 ± 0.0058	0.267 ± 0.16	2.02 ± 0.049
CACCAU	0.138 ± 0.12	1.9842 ± 0.00094	0.347 ± 0.13	2 ± 0.011
CAAGUU	0.055 ± 0.13	2 ± 0.021	0.00566 ± 0.18	2.03 ± 0.046
GAAGUA	0.299 ± 0.013	1.966 ± 0.0082	0.331 ± 0.045	2.014 ± 0.019
GAAGUU	0.522 ± 0.18	2.007 ± 0.0088	0.481 ± 0.2	2.04 ± 0.03
GAAGUG	0.327 ± 0.098	1.8629 ± 0.0002	0.369 ± 0.033	1.99 ± 0.026
AAAUUC	0.629 ± 0.14	2.03 ± 0.0039	0.471 ± 0.059	2.018 ± 0.016
AAAUUG	0.0771 ± 0.044	1.921 ± 0.0078	0.102 ± 0.18	2.02 ± 0.061
AAAUUU	0.415 ± 0.0088	2.053 ± 0.0076	0.218 ± 0.093	2.05 ± 0.039
UAAGAG	0.104 ± 0.05	1.667 ± 0.0094	0.3 ± 0.061	1.96 ± 0.038
UAAGAA	0.023 ± 0.078	1.882 ± 0.011	-0.19 ± 0.37	1.96 ± 0.022
UAAGGG	-0.0665 ± 0.0016	1.601 ± 0.002	0.263 ± 0.16	1.92 ± 0.025
UAAGGA	0.0731 ± 0.084	1.85 ± 0.026	0.217 ± 0.0071	1.997 ± 0.018
AACCCC	0.581 ± 0.12	2.013 ± 0.0022	0.492 ± 0.041	1.99 ± 0.045
UACGAC	-0.293 ± 0.061	2.013 ± 0.0052	-0.283 ± 0.015	2.01 ± 0.039
UACGAG	0.31 ± 0.029	1.689 ± 0.014	0.472 ± 0.14	1.953 ± 0.013
UACGAU	0.175 ± 0.046	1.9462 ± 0.0017	0.146 ± 0.33	2.02 ± 0.023
GACCAA	0.358 ± 0.039	2.0328 ± 0.00084	0.42 ± 0.074	2.03 ± 0.043
UAACGG	0.142 ± 0.02	1.705 ± 0.011	0.534 ± 0.11	1.95 ± 0.034

Variant	FACS-Seq fitted mean (log10) ((6R,S)-folinic acid [1])	normalized RNA/DNA level without ligand (log10) ((6R,S)-folinic acid [2])	FACS-Seq fitted mean (log10) ((6R,S)-folinic acid [3])	normalized RNA/DNA level with ligand (log10) ((6R,S)-folinic acid [4])
GACAGG	0.464 ± 0.089	1.959 ± 0.01	0.498 ± 0.27	2.02 ± 0.042
GACAGA	0.403 ± 0.0081	1.994 ± 0.017	0.442 ± 0.15	2.01 ± 0.035
UAACUU	0.511 ± 0.0079	1.994 ± 0.011	0.408 ± 0.12	2 ± 0.045
UAACUG	0.401 ± 0.0068	1.846 ± 0.015	0.499 ± 0.1	2 ± 0.024
UAACUA	0.248 ± 0.065	1.98 ± 0.027	0.41 ± 0.11	2.03 ± 0.028
GAAGGC	0.492 ± 0.035	1.951 ± 0.006	0.635 ± 0.019	2.009 ± 0.0033
GACACA	0.265 ± 0.028	1.99 ± 0.02	0.656 ± 0.046	2 ± 0.037
GAAUAC	0.463 ± 0.14	1.974 ± 0.0095	0.313 ± 0.25	2 ± 0.053
GAAUAA	-0.184 ± 0.011	1.976 ± 0.0046	-0.234 ± 0.28	1.989 ± 0.016
GAAGCG	0.117 ± 0.13	1.929 ± 0.012	0.259 ± 0.065	2.02 ± 0.034
GAAGCU	0.0826 ± 0.071	2.018 ± 0.015	0.0358 ± 0.15	2.04 ± 0.022
GAAGCA	0.272 ± 0.031	1.967 ± 0.015	0.486 ± 0.021	2 ± 0.024
UAAGUC	0.228 ± 0.093	2.0619 ± 0.00099	0.173 ± 0.12	2.038 ± 0.0091
UAAGUU	0.118 ± 0.029	1.952 ± 0.0089	0.124 ± 0.17	2.01 ± 0.041
UAAGUG	0.502 ± 0.074	1.6686 ± 0.0006	0.881 ± 0.18	1.93 ± 0.055
UACACG	0.231 ± 0.14	1.808 ± 0.0037	0.348 ± 0.022	1.95 ± 0.053
UACACA	0.187 ± 0.0057	1.974 ± 0.012	-0.044 ± 0.049	1.9892 ± 0.0017
CACAAA	0.458 ± 0.03	1.981 ± 0.014	0.462 ± 0.16	1.99 ± 0.033
GAAGAC	0.635 ± 0.035	1.97 ± 0.0057	0.574 ± 0.24	2.03 ± 0.025
GAAGAA	-0.708 ± 0.014	1.973 ± 0.0039	-0.827 ± 0.004	2.03 ± 0.04
GAAGAU	0.124 ± 0.065	1.968 ± 0.0035	0.379 ± 0.13	2.03 ± 0.032
GAAGAG	0.0515 ± 0.088	1.837 ± 0.0055	0.356 ± 0.15	2.03 ± 0.034
CAAGAA	0.425 ± 0.21	1.95 ± 0.0095	0.427 ± 0.2	2 ± 0.024
CAAGAG	0.355 ± 0.047	1.903 ± 0.013	0.365 ± 0.14	1.98 ± 0.024
